Experimental data as given in publication PMC11063897, “Structural analysis of the SAM domain of the Arabidopsis mitochondrial tRNA import receptor”.

Key:
Assay in all cases: EMSA; 160 uM protein, 120 nM RNA; 15 mM Tris-HCl pH 7.0, 150 mM NaCl, 10% glycerol, 2 U/ul RNase inhibitor, 22 C, 15 min; 6% native TBE PAGE in 0.5x TBE
Conditions in all cases: protein: recombinant; tags: N-terminal His6, thrombin site; label: 5'-6-FAM
[1] = target: T1, Tric1 SAM domain Gly241Glu (Arabidopsis thaliana, UniProt Q9SCK3, G241E)
T1 sequence: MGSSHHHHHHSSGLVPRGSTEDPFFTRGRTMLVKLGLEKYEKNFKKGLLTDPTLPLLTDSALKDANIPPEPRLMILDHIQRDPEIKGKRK

Tric1 SAM domain WT = target: T2, Tric1 SAM domain WT (Arabidopsis thaliana, UniProt Q9SCK3)
T2 sequence: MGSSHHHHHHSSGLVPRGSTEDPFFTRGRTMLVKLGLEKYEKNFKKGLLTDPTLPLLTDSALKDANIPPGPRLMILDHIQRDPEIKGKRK

[2] = target: T3, Tric1 SAM domain Asp235Ala:Gly241Glu (Arabidopsis thaliana, UniProt Q9SCK3, D235A;G241E)
T3 sequence: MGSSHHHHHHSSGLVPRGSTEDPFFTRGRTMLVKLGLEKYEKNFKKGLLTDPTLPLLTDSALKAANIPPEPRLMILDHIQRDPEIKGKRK

[3] = target: T4, Tric1 SAM domain Asp235Ala (Arabidopsis thaliana, UniProt Q9SCK3, D235A)
T4 sequence: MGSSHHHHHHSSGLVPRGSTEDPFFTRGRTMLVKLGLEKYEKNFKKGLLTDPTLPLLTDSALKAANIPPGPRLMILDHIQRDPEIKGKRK

B1: tRNAala T-arm (structured_RNA)
RNA: UCGCUUUGCAUGCGA
- binding result [1]: no binding
- binding result (Tric1 SAM domain WT): binds
- binding result [2]: no binding
- binding result [3]: no binding
